Test results taken from PMC9670274 (ACS Omega, 2022).

Key:
[1] = target: lactate dehydrogenase from Lactobacillus helsingborgensis (Lactobacillus helsingborgensis); assay: SEC-MALS
SEC-MALS = target: the molecule itself; assay: SEC-MALS

| Molecule | stoichiometry N [1] | stoichiometry N (SEC-MALS) |
| --- | --- | --- |
| lactate dehydrogenase from Lactobacillus helsingborgensis (enzyme) | 8 |  |
| lactate dehydrogenase from Lactobacillus johnsonii (enzyme) MTTYYKGFPQSTREEKLHMVNLDELEHEAKYVMPEAAYYYVASGAENEWTWRNNTQAFNHFQIVPRALTGMQNPELNTEFLGMKLKTPVMICPIACHGIANAEAEIDTAKGAKAAGALFAMSTYANKSVQEVQSAVGDSPRFMQLYLSKNWDFNKMVIEESVKAGFTGFFLTVDALVSGYREANLRTNFTYPVPLAFFNEWNGGKGEGQSVAQMYASSAQNIGPDDIRKIKEIADVPVIVKGVECAEDAMLAIGTGADGIVVSNHGGREVDGAPATIDVLPEIAKAVRSCDHRVPIILDGGVRRGSHVFKALALGADLVGIGRPFLYGLALGGAQGVQSVIEQLNKELLIDMQLTGCKTIEDIKHAKIDHINYSADWGISSTSRSVMKPYPVTKENQLTGEAADAVSGASRH |  | 8 |
